According to patent US20050147602:

What was measured:
[1] = system: myc-tagged CHO cell-expressed CTHRC1
[2] = system: His-tagged CTHRC1 expressed in Chinese hamster ovary cells (CHO)

MMP-7
cleavage of CTHRC1 (immunoblot after digestion) [1]: MMP-7 and thrombin do not cleave CTHRC1

highly purified bacterial collagenase (VII, Sigma)
cleavage of CTHRC1 (immunoblot after digestion) [2]: highly purified bacterial collagenase (Sigma) (FIG. 30), as well as MMP-1 (FIG. 31) cleave CTHRC1 near the N terminus

matrix metalloprotease 1 (MMP-1)
cleavage of CTHRC1 (immunoblot after 15 and 60 minutes digest) [1]: MMP-1 (FIG. 31) cleave CTHRC1 near the N terminus

thrombin
cleavage of CTHRC1 (immunoblot after digestion) [1]: MMP-7 and thrombin do not cleave CTHRC1
